How the values were obtained:
[1] = biological target: nesprin-1α fragment SLR2-7ΔAD (SLR2-7 with the adaptive domain deleted) (human); assay: dynamic light scattering
[2] = biological target: nesprin-1α fragment SLR2-7 (full-length nesprin-1α minus the transmembrane domain) (human); assay: dynamic light scattering

nesprin-1α fragment SLR2-7ΔAD (SLR2-7 with the adaptive domain deleted) (domain or fragment)
stoichiometry N [1]: 2

nesprin-1α fragment SLR2-7 (full-length nesprin-1α minus the transmembrane domain) (domain or fragment)
stoichiometry N [2]: 2

Reference: paper PMC2885798
